From patent US20210324080A1 come the findings set out here.

Assay [1] addresses CTLA-4-hFc (immunogen A; hFc-labeled CTLA-4 extracellular domain protein) (human) (UniProt P16410). In words: blocking assay, CTLA-4 protein, competitor B7.1.
Assay [2] shares this target. Kind of assay: blocking assay, CTLA-4 protein, competitor B7.2.
The target in assay [3] is monkey CTLA-4, full length, on transfected HEK293 cells (monkey). In words: FACS, 293F-cCTLA-4 cells.
For assay [4], the target named is CTLA-4-hFc (immunogen A; hFc-labeled CTLA-4 extracellular domain protein) (human) (UniProt P16410). In words: ELISA, coated CTLA-4-hFc, competitor biotin-B7.1-hFc.
Sequence of CTLA-4-hFc (immunogen A; hFc-labeled CTLA-4 extracellular domain protein) (human) (P16410 36-161 limits assumed): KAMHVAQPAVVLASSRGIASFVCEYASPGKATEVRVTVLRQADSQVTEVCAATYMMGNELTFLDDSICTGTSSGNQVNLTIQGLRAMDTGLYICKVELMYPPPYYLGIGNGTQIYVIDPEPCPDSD
The target is the same in assay [5]. Kind of assay: ELISA, coated CTLA-4-hFc, competitor biotin-B7.2-hFc.
Assay [6] deals with human CTLA-4 (Y201V), full length, on transfected cells (human) (UniProt P16410). Kind of assay: FACS, human CTLA-4 expressing cells.
Sequence of human CTLA-4 (Y201V), full length, on transfected cells (human) (P16410 36-223 Y201V): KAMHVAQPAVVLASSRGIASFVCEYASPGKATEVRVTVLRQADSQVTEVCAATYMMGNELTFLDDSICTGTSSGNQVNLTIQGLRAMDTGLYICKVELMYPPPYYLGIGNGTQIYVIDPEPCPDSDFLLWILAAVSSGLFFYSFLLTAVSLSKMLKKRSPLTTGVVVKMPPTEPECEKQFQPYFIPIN
The target in assay [7] is monkey CTLA-4, full length, on transfected HEK293 cells (monkey). Kind of assay: FACS, monkey CTLA-4 expressing cells.
The target in assay [8] is human CTLA-4 (Y201V), full length, on transfected cells (human) (UniProt P16410). In words: FACS, CHOK1-hCTLA-4 cells.

For hIgG1 (antibody), in assay [1], the % Block at 0.000128 nM is 0%, the % Block at 0.0128 nM is -2%, the % Block at 0.064 nM worked out at 0.2% and the % Block at 1.6 nM turned out to be 1.3%. In assay [1], the % Block at 8 nM is -0.1%, the % Block at 40 nM worked out at 1.6% and the % Block at 200 nM was -0.3%. In addition, in assay [2], the % Block at 0.000128 nM amounted to 0%, the % Block at 0.0128 nM was 12.3%, the % Block at 0.064 nM came out at 12.9% and the % Block at 0.32 nM amounted to 15.5%. In addition, in assay [2], the % Block at 1.6 nM was 4.1%, the % Block at 8 nM was determined as 4.9%, the % Block at 40 nM came out at 18.3% and the % Block at 200 nM is 12.4%. Moreover, in assay [3], the MFI at 0.000128 nM is 2.7, the MFI at 0.0128 nM turned out to be 2.6, the MFI at 0.064 nM was 2.6 and the MFI at 0.32 nM worked out at 2.4. In assay [3], this substance showed an MFI at 1.6 nM of 2.6, an MFI at 8 nM of 2.9, an MFI at 40 nM of 3.3 and an MFI at 200 nM of 4.9.

As to hIgG4 (antibody), in assay [4], the Inhibition rate (%) at 0.00091 nM amounted to 0%, the Inhibition rate (%) at 0.091 nM was -36%, the Inhibition rate (%) at 0.274 nM is -41% and the Inhibition rate (%) at 0.823 nM was -37%. In assay [4], the Inhibition rate (%) at 2.5 nM is -39%, the Inhibition rate (%) at 7.4 nM was -40%, the Inhibition rate (%) at 22.2 nM is -41% and the Inhibition rate (%) at 66.7 nM is -10%. Further, in assay [5], the Inhibition rate (%) at 0.00091 nM came to 0%, the Inhibition rate (%) at 0.091 nM was -8%, the Inhibition rate (%) at 0.274 nM was -10% and the Inhibition rate (%) at 0.823 nM is -1%. Further, in assay [5], the Inhibition rate (%) at 2.5 nM was -7%, the Inhibition rate (%) at 7.4 nM was -12%, the Inhibition rate (%) at 22.2 nM amounted to 10% and the Inhibition rate (%) at 66.7 nM is 61%.

In assay [6], IgG control (human IgG) (antibody) displayed an MFI at 0.000128 nM of 3, an MFI at 0.0128 nM of 3, an MFI at 0.064 nM of 3 and an MFI at 0.32 nM of 3. In assay [6], the MFI at 1.6 nM was found to be 3, the MFI at 8 nM is 3, the MFI at 40 nM was 4 and the MFI at 200 nM was 6. Besides, in assay [7], the MFI at 0.000128 nM stood at 3, the MFI at 0.0128 nM stood at 3, the MFI at 0.064 nM came to 3 and the MFI at 0.32 nM amounted to 2. Besides, in assay [7], the MFI at 1.6 nM came out at 3, the MFI at 8 nM amounted to 3, the MFI at 40 nM is 3 and the MFI at 200 nM amounted to 5. In assay [8], this substance had an MFI at 0.07 nM of 2, an MFI at 0.67 nM of 2, an MFI at 6.67 nM of 3 and an MFI at 66.67 nM of 8.
